# Test results published in patent US20220135638A1 (Takeda / Millennium, published 2022).
# Numbered stars: 1 amine (or outer) side, 2 acyl side, 3 side chain; on linkers, the order of the positions; unused ones are H or OH. Square brackets hold non-standard residues; d marks the D form. Primed or numbered codes have the meaning given here. Side chains are listed from the residue outwards. Ends that are not written are not given here. * marks the point of attachment. C20 diacid = O=C(O)CCCCCCCCCCCCCCCCCCC(=O)*; C18 diacid = O=C(O)CCCCCCCCCCCCCCCCC(=O)*; C16 diacid = O=C(O)CCCCCCCCCCCCCCC(=O)*; γGlu = O=C(O)[C@H](CCC(=O)[*:2])N[*:1]; Iva = CC[C@](C)(N)C(=O)O; PEG3′ = not defined here; Abu = CC[C@H](N)C(=O)O; Aib = CC(C)(N)C(=O)O
# T1: full-length human GIPR (GenBank NM_000164) with an N-terminal FLAG tag on HEK-293T cells (human), P48546
# T1 chain: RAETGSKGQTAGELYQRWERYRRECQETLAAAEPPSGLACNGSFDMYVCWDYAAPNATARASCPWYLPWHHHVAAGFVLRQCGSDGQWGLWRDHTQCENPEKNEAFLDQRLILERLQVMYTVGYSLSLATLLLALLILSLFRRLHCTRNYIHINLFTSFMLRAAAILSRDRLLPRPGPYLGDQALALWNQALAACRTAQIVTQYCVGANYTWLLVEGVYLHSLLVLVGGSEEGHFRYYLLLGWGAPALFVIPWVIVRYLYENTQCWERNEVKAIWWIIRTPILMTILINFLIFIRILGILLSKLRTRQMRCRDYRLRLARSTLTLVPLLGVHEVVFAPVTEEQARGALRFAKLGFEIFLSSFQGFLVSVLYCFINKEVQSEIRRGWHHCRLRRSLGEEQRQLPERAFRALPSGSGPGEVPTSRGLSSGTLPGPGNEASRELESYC
# T2: full-length human GLP-1R (GenBank NM_002062) with an N-terminal FLAG tag on HEK-293T cells (human), P43220
# T2 chain: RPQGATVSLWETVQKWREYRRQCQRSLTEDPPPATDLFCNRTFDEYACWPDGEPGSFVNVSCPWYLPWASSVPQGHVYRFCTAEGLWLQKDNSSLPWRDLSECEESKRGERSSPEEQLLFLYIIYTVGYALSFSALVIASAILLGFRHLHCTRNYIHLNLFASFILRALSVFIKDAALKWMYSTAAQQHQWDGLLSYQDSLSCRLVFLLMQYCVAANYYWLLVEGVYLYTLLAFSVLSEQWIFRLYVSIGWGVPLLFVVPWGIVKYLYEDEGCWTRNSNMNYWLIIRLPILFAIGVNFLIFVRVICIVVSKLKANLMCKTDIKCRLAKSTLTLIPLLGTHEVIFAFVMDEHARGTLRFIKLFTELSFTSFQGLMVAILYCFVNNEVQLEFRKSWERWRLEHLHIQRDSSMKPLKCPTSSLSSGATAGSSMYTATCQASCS
# Molecular target: T1, full-length human GIPR (GenBank …)
# Test: cell-based or functional assay
row,Binder,GIP EC50(pM)
1,Y[Aib]EGTFISDYSIALDR[Aib]HQ[Aib]NFVNW[Iva]LAQRPK([Abu-γGlu-C18 diacid])SGAPPPS (ends and bridges not checked) [Compound No. 538],1.8
2,Y[Aib]EGTFISDYSIALDR[Aib]HQ[Aib]NFVNW[Iva]LAQRK([Abu-γGlu-C18 diacid])SSGAPPPS (ends and bridges not checked) [Compound No. 537],1.32
3,Y[Aib]EGTFISDYSIALDR[Aib]HQ[Aib]NFVNW[Iva]LAQRPSK([PEG3′-PEG3′-C16 diacid])GAPPPSR (ends and bridges not checked) [Compound No 898],0.6
4,Y[Aib]EGTFISDYSIALDR[Aib]HQ[Aib]NFVNW[Iva]LAQRPSSGAPPK([Abu-γGlu-C18 diacid])S (ends and bridges not checked) [Compound No. 544],0.94
5,Y[Aib]EGTFISDYSIALDR[Aib]HQ[Aib]NFVNW[Iva]LAQRPSSGAPPPK([γGlu-γGlu-C18 diacid]) (ends and bridges not checked) [Compound No. 555],0.97
6,Y[Aib]EGTFISDYSIALDR[Aib]HQ[Aib]NFVNW[Iva]LAQRPSK([Abu-γGlu-C18 diacid])GAPPPS (ends and bridges not checked) [Compound No. 539],2.66
7,Y[Aib]EGTFISDYSIALDR[Aib]HQ[Aib]NFVNW[Iva]LAQRPSSGAPPK([γGlu-γGlu-C18 diacid])S (ends and bridges not checked) [Compound No. 554],0.82
8,Y[Aib]EGTFISDYSIALDR[Aib]HQ[Aib]NFVNW[Iva]LAQRPSSK([γGlu-γGlu-C18 diacid])APPPS (ends and bridges not checked) [Compound No. 550],0.83
9,Y[Aib]EGTFISDYSIALDR[Aib]HQ[Aib]NFVNW[Iva]LAQRPK([γGlu-γGlu-C18 diacid])SGAPPPS (ends and bridges not checked) [Compound No. 548],0.81
10,Y[Aib]EGTFISDYSIALDR[Aib]HQ[Aib]NFVNW[Iva]LAQRPSSGAPK([Abu-γGlu-C18 diacid])PS (ends and bridges not checked) [Compound No. 543],0.72
11,Y[Aib]EGTFISDYSIALDR[Aib]HQ[Aib]NFVNW[Iva]LAQRK([PEG3′-PEG3′-C16 diacid])SSGAPPPSR (ends and bridges not checked) [Compound No 911],0.8
12,Y[Aib]EGTFISDYSIALDR[Aib]HQ[Aib]NFVNW[Iva]LAQRPSSGAPK([PEG3′-PEG3′-C18 diacid])PSR (ends and bridges not checked) [Compound No 928],1.6
13,Y[Aib]EGTFISDYSIALDR[Aib]HQ[Aib]NFVNW[Iva]LAQRPSSGK([γGlu-γGlu-C18 diacid])PPPS (ends and bridges not checked) [Compound No. 551],0.6
14,Y[Aib]EGTFISDYSIALDR[Aib]HQ[Aib]NFVNW[Iva]LAQRPSSGK([Abu-γGlu-C18 diacid])PPPS (ends and bridges not checked) [Compound No. 541],0.73
15,Y[Aib]EGTFISDYSIALDR[Aib]HQ[Aib]NFVNW[Iva]LAQRPSK([PEG3′-PEG3′-C20 diacid])GAPPPSR (ends and bridges not checked) [Compound No 900],0.7
16,Y[Aib]EGTFISDYSIALDR[Aib]HQ[Aib]NFVNW[Iva]LAQRPK([PEG3′-PEG3′-C18 diacid])SGAPPPSR (ends and bridges not checked) [Compound No 893],2.3
17,Y[Aib]EGTFISDYSIALDR[Aib]HQ[Aib]NFVNW[Iva]LAQRPK([PEG3′-PEG3′-C16 diacid])SGAPPPSR (ends and bridges not checked) [Compound No 892],1.7
18,Y[Aib]EGTFISDYSIALDR[Aib]HQ[Aib]NFVNW[Iva]LAQRPSSGAPK([PEG3′-PEG3′-C16 diacid])PSR (ends and bridges not checked) [Compound No 927],1.3
19,Y[Aib]EGTFISDYSIALDR[Aib]HQ[Aib]NFVNW[Iva]LAQRPSSGAPPPK([Abu-γGlu-C18 diacid]) (ends and bridges not checked) [Compound No. 545],0.43
20,Y[Aib]EGTFISDYSIALDR[Aib]HQ[Aib]NFVNW[Iva]LAQRPSSK([Abu-γGlu-C18 diacid])APPPS (ends and bridges not checked) [Compound No. 540],3.01
21,Y[Aib]EGTFISDYSIALDR[Aib]HQ[Aib]NFVNW[Iva]LAQRPSSGAK([Abu-γGlu-C18 diacid])PPS (ends and bridges not checked) [Compound No. 542],1.21
22,Y[Aib]EGTFISDYSIALDR[Aib]HQ[Aib]NFVNW[Iva]LAQRK([PEG3′-PEG3′-C18 diacid])SSGAPPPSR (ends and bridges not checked) [Compound No 912],0.7
23,Y[Aib]EGTFISDYSIALDR[Aib]HQ[Aib]NFVNW[Iva]LAQRPSSGAK([γGlu-γGlu-C18 diacid])PPS (ends and bridges not checked) [Compound No. 552],1.12
24,Y[Aib]EGTFISDYSIALDR[Aib]HQ[Aib]NFVNW[Iva]LAQRK([γGlu-γGlu-C18 diacid])SSGAPPPS (ends and bridges not checked) [Compound No. 547],0.41
25,Y[Aib]EGTFISDYSIALDR[Aib]HQ[Aib]NFVNW[Iva]LAQRPK([PEG3′-PEG3′-C20 diacid])SGAPPPSR (ends and bridges not checked) [Compound No 894],1.9
26,Y[Aib]EGTFISDYSIALDR[Aib]HQ[Aib]NFVNW[Iva]LAQRPSSGAPK([γGlu-γGlu-C18 diacid])PS (ends and bridges not checked) [Compound No. 553],1.08
27,Y[Aib]EGTFISDYSIALDR[Aib]HQ[Aib]NFVNW[Iva]LAQRPSK([γGlu-γGlu-C18 diacid])GAPPPS (ends and bridges not checked) [Compound No. 549],0.85
28,Y[Aib]EGTFISDYSIALDR[Aib]HQ[Aib]NFVNW[Iva]LAQRPSK([PEG3′-PEG3′-C18 diacid])GAPPPSR (ends and bridges not checked) [Compound No 899],0.7

# Molecular target: T2, full-length human GLP-1R (GenBank …)
# Test: cell-based or functional assay
row,Binder,GLP EC50 [nM]
1,Y[Aib]EGTFISDYSIALDR[Aib]HQ[Aib]NFVNW[Iva]LAQRPK([Abu-γGlu-C18 diacid])SGAPPPS (ends and bridges not checked) [Compound No. 538],> 1000
2,Y[Aib]EGTFISDYSIALDR[Aib]HQ[Aib]NFVNW[Iva]LAQRK([Abu-γGlu-C18 diacid])SSGAPPPS (ends and bridges not checked) [Compound No. 537],> 1000
3,Y[Aib]EGTFISDYSIALDR[Aib]HQ[Aib]NFVNW[Iva]LAQRPSK([PEG3′-PEG3′-C16 diacid])GAPPPSR (ends and bridges not checked) [Compound No 898],74.1
4,Y[Aib]EGTFISDYSIALDR[Aib]HQ[Aib]NFVNW[Iva]LAQRPSSGAPPK([Abu-γGlu-C18 diacid])S (ends and bridges not checked) [Compound No. 544],> 1000
5,Y[Aib]EGTFISDYSIALDR[Aib]HQ[Aib]NFVNW[Iva]LAQRPSSGAPPPK([γGlu-γGlu-C18 diacid]) (ends and bridges not checked) [Compound No. 555],> 1000
6,Y[Aib]EGTFISDYSIALDR[Aib]HQ[Aib]NFVNW[Iva]LAQRPSK([Abu-γGlu-C18 diacid])GAPPPS (ends and bridges not checked) [Compound No. 539],> 1000
7,Y[Aib]EGTFISDYSIALDR[Aib]HQ[Aib]NFVNW[Iva]LAQRPSSGAPPK([γGlu-γGlu-C18 diacid])S (ends and bridges not checked) [Compound No. 554],> 1000
8,Y[Aib]EGTFISDYSIALDR[Aib]HQ[Aib]NFVNW[Iva]LAQRPSSK([γGlu-γGlu-C18 diacid])APPPS (ends and bridges not checked) [Compound No. 550],> 1000
9,Y[Aib]EGTFISDYSIALDR[Aib]HQ[Aib]NFVNW[Iva]LAQRPK([γGlu-γGlu-C18 diacid])SGAPPPS (ends and bridges not checked) [Compound No. 548],> 1000
10,Y[Aib]EGTFISDYSIALDR[Aib]HQ[Aib]NFVNW[Iva]LAQRPSSGAPK([Abu-γGlu-C18 diacid])PS (ends and bridges not checked) [Compound No. 543],> 1000
11,Y[Aib]EGTFISDYSIALDR[Aib]HQ[Aib]NFVNW[Iva]LAQRK([PEG3′-PEG3′-C16 diacid])SSGAPPPSR (ends and bridges not checked) [Compound No 911],93.3
12,Y[Aib]EGTFISDYSIALDR[Aib]HQ[Aib]NFVNW[Iva]LAQRPSSGAPK([PEG3′-PEG3′-C18 diacid])PSR (ends and bridges not checked) [Compound No 928],135
13,Y[Aib]EGTFISDYSIALDR[Aib]HQ[Aib]NFVNW[Iva]LAQRPSSGK([γGlu-γGlu-C18 diacid])PPPS (ends and bridges not checked) [Compound No. 551],> 1000
14,Y[Aib]EGTFISDYSIALDR[Aib]HQ[Aib]NFVNW[Iva]LAQRPSSGK([Abu-γGlu-C18 diacid])PPPS (ends and bridges not checked) [Compound No. 541],> 1000
15,Y[Aib]EGTFISDYSIALDR[Aib]HQ[Aib]NFVNW[Iva]LAQRPSK([PEG3′-PEG3′-C20 diacid])GAPPPSR (ends and bridges not checked) [Compound No 900],219
16,Y[Aib]EGTFISDYSIALDR[Aib]HQ[Aib]NFVNW[Iva]LAQRPK([PEG3′-PEG3′-C18 diacid])SGAPPPSR (ends and bridges not checked) [Compound No 893],2.1
17,Y[Aib]EGTFISDYSIALDR[Aib]HQ[Aib]NFVNW[Iva]LAQRPK([PEG3′-PEG3′-C16 diacid])SGAPPPSR (ends and bridges not checked) [Compound No 892],151
18,Y[Aib]EGTFISDYSIALDR[Aib]HQ[Aib]NFVNW[Iva]LAQRPSSGAPK([PEG3′-PEG3′-C16 diacid])PSR (ends and bridges not checked) [Compound No 927],436
19,Y[Aib]EGTFISDYSIALDR[Aib]HQ[Aib]NFVNW[Iva]LAQRPSSGAPPPK([Abu-γGlu-C18 diacid]) (ends and bridges not checked) [Compound No. 545],> 1000
20,Y[Aib]EGTFISDYSIALDR[Aib]HQ[Aib]NFVNW[Iva]LAQRPSSK([Abu-γGlu-C18 diacid])APPPS (ends and bridges not checked) [Compound No. 540],> 1000
21,Y[Aib]EGTFISDYSIALDR[Aib]HQ[Aib]NFVNW[Iva]LAQRPSSGAK([Abu-γGlu-C18 diacid])PPS (ends and bridges not checked) [Compound No. 542],> 1000
22,Y[Aib]EGTFISDYSIALDR[Aib]HQ[Aib]NFVNW[Iva]LAQRK([PEG3′-PEG3′-C18 diacid])SSGAPPPSR (ends and bridges not checked) [Compound No 912],105
23,Y[Aib]EGTFISDYSIALDR[Aib]HQ[Aib]NFVNW[Iva]LAQRPSSGAK([γGlu-γGlu-C18 diacid])PPS (ends and bridges not checked) [Compound No. 552],> 1000
24,Y[Aib]EGTFISDYSIALDR[Aib]HQ[Aib]NFVNW[Iva]LAQRK([γGlu-γGlu-C18 diacid])SSGAPPPS (ends and bridges not checked) [Compound No. 547],> 1000
25,Y[Aib]EGTFISDYSIALDR[Aib]HQ[Aib]NFVNW[Iva]LAQRPK([PEG3′-PEG3′-C20 diacid])SGAPPPSR (ends and bridges not checked) [Compound No 894],794
26,Y[Aib]EGTFISDYSIALDR[Aib]HQ[Aib]NFVNW[Iva]LAQRPSSGAPK([γGlu-γGlu-C18 diacid])PS (ends and bridges not checked) [Compound No. 553],> 1000
27,Y[Aib]EGTFISDYSIALDR[Aib]HQ[Aib]NFVNW[Iva]LAQRPSK([γGlu-γGlu-C18 diacid])GAPPPS (ends and bridges not checked) [Compound No. 549],> 1000
28,Y[Aib]EGTFISDYSIALDR[Aib]HQ[Aib]NFVNW[Iva]LAQRPSK([PEG3′-PEG3′-C18 diacid])GAPPPSR (ends and bridges not checked) [Compound No 899],144
